Biological target: T1, VDRm-NT (vitamin D receptor, flexible loop deleted, no His-tag) (rat, UniProt P13053 1-423, del165-211)
T1 sequence: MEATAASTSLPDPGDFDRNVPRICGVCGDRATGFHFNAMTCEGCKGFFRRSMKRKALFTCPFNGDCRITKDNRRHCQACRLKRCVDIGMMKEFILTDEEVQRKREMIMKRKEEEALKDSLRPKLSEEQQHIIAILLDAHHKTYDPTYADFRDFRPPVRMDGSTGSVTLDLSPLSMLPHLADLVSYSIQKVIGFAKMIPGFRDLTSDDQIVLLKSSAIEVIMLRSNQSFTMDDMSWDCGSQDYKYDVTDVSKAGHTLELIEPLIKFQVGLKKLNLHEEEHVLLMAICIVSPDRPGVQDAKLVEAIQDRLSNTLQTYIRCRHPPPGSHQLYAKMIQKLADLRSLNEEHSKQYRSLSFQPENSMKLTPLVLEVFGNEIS
Assay: EMSA

B1: VDRE duplex (dsDNA)
DNA 1: CACGGTTCACGAGGTTCACAC
DNA 2: GTGTGAACCTCGTGAACCGTG
- binding result: binds
